Data on 30 sequences can be found in the nanobody polyreactivity screen of Harvey et al. (2022).

This data set can be described thus: yeast display, Sf9 membrane polyspecificity reagent, FACS + sequencing; frameworks hold sequencing errors. The method in brief: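 A synthetic nanobody library was expressed on Saccharomyces cerevisiae BJ5465 by galactose induction for 36–48 hours. The library was stained for 1 hour at 4 °C with 10% biotinylated, detergent-solubilized Sf9 membrane reagent and enriched with streptavidin microbeads before FACS. Low and high (top ~1%) gates were set on anti-HA fluorescence for expression and streptavidin fluorescence for reagent binding, and each polyreactivity label reflects the gate of origin.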
Take “QVQLQESGGGLVLAGGSLRLSCSASGNISVYGSMGWYRQAPGKEREFVATIDPGTNTNYADSVKDRFTISRDNAKNTVYLQMNSLKPVDTAVYFCAVEAGSDWPYRYWGQGTQVTVSS”: the “polyreactivity (PSR sort gate)” value was “low polyreactivity”.

On to “QVQLQESGGGLVLAGGSLRLSCSASGNISVYGSMGWYRQAPGKEREFVATIDPGTNTNYADSVKDRFTISRDNAKNTVYLQMNTRKPEDTAVYYCAVEAGSDWPYRYWGQGTEVTVSS”, for which the “polyreactivity (PSR sort gate)” value is “low polyreactivity”.

In the case of “QVQLQESGGGLVLAGGSLRLSSAATGSISAQAYMGWDRQAPGKEREHVAGINYGDNTNYADSVKGRFTISRDNEHSVSADEQPESGRYRCVLLRGFLELFYYYIYWGQGTQVTVSS”, the “polyreactivity (PSR sort gate)” value is “high polyreactivity”.

“QVQLQESGGGLVQADGSLRLSCAASGSMFGYYYMGWYRQAPGKDRELVATIHICGITNYADSVKGRFTISRDNAKNTVYLQMNSLKPDDTAVYYCAADEYAQRDLGYWGQGTQVTVSS”: the “polyreactivity (PSR sort gate)” value is on record as “low polyreactivity”.

As for “QVQLQESGGGLVQAGCSLRLSCAASGTISVHASMGWYRQAPGKERELVAGITDGANTYYADSVKGRFTISRDNSKNTVYLQMNSLKPEDTAVYYCAAYYGTEVHFTYWGQGTQVTVSS”, the “polyreactivity (PSR sort gate)” value was “low polyreactivity”.

As for “QVQLQESGGGLVQAGGCLRLSCAASGTIFDPDYMVWYHQAPGKERELVASISLGRMTYYADSVKGRFTINRDNAKNTVYVQMNTLKPEDTAVYYCAVRVETIYYYSYWGQGTQVTVSS”, the “polyreactivity (PSR sort gate)” value was “high polyreactivity”.

In the case of “QVQLQESGGGLVQAGGCLRLSCAASGTISTAYQMGWYRQAPGKEREFVAAIGYGAITNYADSVKGRFTISRDNAKNTVYLQMNSLKPEDTAVYYCAARRYVAGRGAYDYWGQGTQVTLSS”, the “polyreactivity (PSR sort gate)” value is given as “low polyreactivity”.

Regarding “QVQLQESGGGLVQAGGCLSCTASGTIFGQGDMGWYRQAPGKERELVATINDGASTYYADSVKGRFTISRDKAKNTVYLQKNSLKPDDTAVYYCAVCTDITTYFGYWGQGTQVTVSS”, the “polyreactivity (PSR sort gate)” value is given as “low polyreactivity”.

Regarding “QVQLQESGGGLVQAGGDLRLSCAASGKILRDYIMGWYRQASGKEREFVAGIDRGANTNYADSVKGRLTISRDNAKKTVYLQMNSLKPEDTAVYYCAVHTAIVPDFIYWGQGTQVTVSS”, the “polyreactivity (PSR sort gate)” value is on record as “low polyreactivity”.

For “QVQLQESGGGLVQAGGDLRLSCAASGNIFLDYIMGWYRQAPGKEREFVAGIDRGANTNYADSVKGRFTISRDNAKNTLYLQMNSLKPEDTAVYYCAVHTAIVPDFIYWGQGTEVTVSS”, the “polyreactivity (PSR sort gate)” value is “low polyreactivity”.

For “QVQLQESGGGLVQAGGDLRLSCAASGNIFRDYIMGWYRQAPGKELEFVAGIDRGANTNYADSVKGRFTISRDNAKNTVYLQMNSLKPEDTAVYYCAVHTAIVPDFIYWGQGTQVTVSS”, the “polyreactivity (PSR sort gate)” value is given as “low polyreactivity”.

On to “QVQLQESGGGLVQAGGDLRLSCAASGNIFRDYIMGWYRQAPGKEREFVAGIDRGANTNYADSVKGRFTISRDNAKNTVYLQMNSLKPEDTAVYYCAVHTAIVPDFIYWGQGSQVTVSS”, for which the “polyreactivity (PSR sort gate)” value is on record as “low polyreactivity”.

Turning to “QVQLQESGGGLVQAGGDLRLSCAASGNIFRDYIMGWYRQAPRKEREFVAGIDRGANTNYADSVKGRFTISRDNAKNTVYLLLNSLKPEDTAVYYCAVHTAIVPDFIYWGQGTQVTVSS”, the “polyreactivity (PSR sort gate)” value is reported as “low polyreactivity”.

Consider “QVQLQESGGGLVQAGGILRLSCAACGNIFPSAVMGWYRQALAKEREFVATINSGSNTYYADSVKGRFTISRDNAKNTVYLQMNSLKLEDTAVYYCAAYFKLQAWHTYWGQGTQVTVSS”, for which the “polyreactivity (PSR sort gate)” value is “low polyreactivity”.

Turning to “QVQLQESGGGLVQAGGILRLSCAASGTISDRAGMGWYREAPAKNAIGATIDRGTNTNYADSVKGRFTISRDNAKNTVYLQMNSLKREDTAVYNCAADGRYYIYLDYWGQGTQVTVSS”, the “polyreactivity (PSR sort gate)” value is listed as “low polyreactivity”.

For “QVQLQESGGGLVQAGGRLRLSCAASGYISTFSSEMGWYRQAPGKERELVASIAPGCTTSYADSVKGRFTISRDYAKNTEFLQMNSLKPEDTAVYYCAVDYTVPASFGYWGQGSQVTVSS”, the “polyreactivity (PSR sort gate)” value is recorded as “high polyreactivity”.

“QVQLQESGGGLVQAGGSLCLSCAASGTIFFDGDMGWYRQAPCKEREFVAAINPGGSAYYADSVKGRLPLAAITHTVYLQMNSLKPEDTAVYYCAAKLFDVYGYYYWGQGTHVTVSS”: the “polyreactivity (PSR sort gate)” value is reported as “low polyreactivity”.

Turning to “QVQLQESGGGLVQAGGSLCMSCAASGSISDYIFMGWYRQAPGKEREFVAGIGIGGNTNYADSVKGRFTISRDNAKNTVYLQMNSLKPEDTAVYYCAANATYTDYYAYWGQGTKVTVSS”, the “polyreactivity (PSR sort gate)” value is given as “low polyreactivity”.

In the case of “QVQLQESGGGLVQAGGSLCMSCAASGSISDYIFMGWYRQAPGKEREFVAGIGIGGNTNYADSVKGRFTISRDNAKNTVYLQMNSLKPEDTAVYYCAANATYTDYYAYWGQGTQVTVSS”, the “polyreactivity (PSR sort gate)” value is on record as “low polyreactivity”.

Turning to “QVQLQESGGGLVQAGGSLGCAASGNISTRSEMGWYRQAPGKEREFVATINSGGITNYADSVKGRFTISRDNAKNTVYLRMNSLKPEDTAVYYRAVYGDFSDPYDYWGQGTQVTVSS”, the “polyreactivity (PSR sort gate)” value was “low polyreactivity”.

As to “QVQLQESGGGLVQAGGSLGCAASGNISTRSEMGWYRQAPGKEREFVATINSGGITNYADSVKGRFTISRDNAKNTVYLRMNSLKPEDTAVYYRAVYGYFSDPYDYWGQGTQVTVSC”, the “polyreactivity (PSR sort gate)” value is recorded as “low polyreactivity”.

For “QVQLQESGGGLVQAGGSLLSCAASGTISYYREMGWYRQAPGKERELVAGIGVGTITYYADSVKGRFTISRDNAKNTVYLHMNSLKPEDTAVYYCAAHIDGNDSHAYWGQGTQVTVSS”, the “polyreactivity (PSR sort gate)” value is given as “low polyreactivity”.

On to “QVQLQESGGGLVQAGGSLRKSCAASGSVSYQEAMGWYRQAPGKERELVATISFGANTNYADSVKGRFTISRDNAKNTVYLQMNSLKPEDTAVYYCAAESLFDDYYGYWGQGTQVTVSS”, for which the “polyreactivity (PSR sort gate)” value was “low polyreactivity”.

Turning to “QVQLQESGGGLVQAGGSLRLGCAASGNISDAGYMGWYRQAPGKEREFVAAIAAGSNTNYADSVKGRFTISRDNAINTVYLQMNSLKPEVTAVFYCAVASYARVQYEYWGQGTQVTVNS”, the “polyreactivity (PSR sort gate)” value is on record as “low polyreactivity”.

As to “QVQLQESGGGLVQAGGSLRLICAASGTIFSARFMGWYRQAPGKERELVATITDGGNTNHADSVKGRFTISRDNAKNTVYLKMYSLKPEDAAVYYCAAGEVDNDTLLFWGQGSQVTVSS”, the “polyreactivity (PSR sort gate)” value is on record as “low polyreactivity”.

Turning to “QVQLQESGGGLVQAGGSLRLPCAASGNISDAGYMGWYRQAPGKQREFVAAIAAGSNTNYADSVKGSFTISRDNAKNTVYLQMNSLKPEDTAVIFFAVASYARVQYEYWGQGTQVTVNS”, the “polyreactivity (PSR sort gate)” value is given as “low polyreactivity”.

On to “QVQLQESGGGLVQAGGSLRLRCAASRNISGSSDLGWYHQAPGKEREFVASITSGGTTYYADSVKGRFTISRDNAKNTVYLQMNSLKPEDTAVYYCAAESRYPFIYEYWGQGTQVTVSS”, for which the “polyreactivity (PSR sort gate)” value is recorded as “low polyreactivity”.

Regarding “QVQLQESGGGLVQAGGSLRLSCAAIGSISILQSMGWYRQAPGKERELVAGINWGATTYYADSVKGRLTTSRDYAKNTVYLQMNSLKPEDTAVYYCAVPTYYTYPLLYWGQGTQVTVSS”, the “polyreactivity (PSR sort gate)” value is recorded as “low polyreactivity”.

Consider “QVQLQESGGGLVQAGGSLRLSCAARASIFKVVDMGLYRQAPAKEREFVATIGEGGNTYYADSVKGRFTISRDNAKNTVYLQMNSLKPEDTAVYFYAVVLGTSYRYTYWGQGTQVTVSS”, for which the “polyreactivity (PSR sort gate)” value is reported as “low polyreactivity”.

Regarding “QVQLQESGGGLVQAGGSLRLSCAASGLILARNYMGWYRQAPGTERELVSGIGVGASTNYADSVKGRFTISRDNAKNTVYLQMNSLEPEDTAVYYCAVGDTVLGYHYYWGQGTQVTVSN”, the “polyreactivity (PSR sort gate)” value is given as “low polyreactivity”.
